Experimental data published in publication PMC7608827 (Science Advances, 2020).
Like-named read-outs stand apart in the source and are kept apart here.

B1: CaCohA2, cohesin module of Clostridium acetobutylicum (domain or fragment, UniProt Q977Y4 611-759, looked up)
chain: VKNETVKLSVGTVSGNPGDTVKVPVTISQVSTPVGLICMDISYDASKFTVKDVLPNTDLVKDTDNYSFIVNTSTPGKISITFTDPTLANYPISVDGILAYLDFIINSNATAGDSALTVDPATLIVADENDKDIKDAASNGKITVTGSAP
B2: CaDoc0917, dockerin module of Clostridium acetobutylicum (domain or fragment, UniProt Q97KK2 477-537, looked up)
chain: NTILGDLNDDGVVNGRDIVMMRQYLAGKTVSGIDKNALDINGDGAVNGRDLMELIKKVSNN

What was measured:
Assay in all cases: ITC
[1] = target: CaDoc0917(R16D) (Clostridium acetobutylicum)
[2] = target: CaDoc0917(R49D) (Clostridium acetobutylicum)
[3] = target: CaDoc0917(R16D) (Clostridium acetobutylicum); remark: listed apart in the source
[4] = target: CaDoc0917(R49D) (Clostridium acetobutylicum); remark: listed apart in the source
[5] = target: B2
[6] = target: CaDoc0917(R16D/I55R) (Clostridium acetobutylicum)
[7] = target: CaDoc0917(R16D/M52V) (Clostridium acetobutylicum)
[8] = target: CaDoc0917(R16DE53Q) (Clostridium acetobutylicum)
[9] = target: CaDoc0917(R49D/R22I) (Clostridium acetobutylicum)
[10] = target: CaDoc0917(R49D/V19M) (Clostridium acetobutylicum)
[11] = target: B2; remark: listed apart in the source
[12] = target: CaDoc0917(R16D/I55R) (Clostridium acetobutylicum); remark: listed apart in the source
[13] = target: CaDoc0917(R16D/M52V) (Clostridium acetobutylicum); remark: listed apart in the source
[14] = target: CaDoc0917(R49D/R22I) (Clostridium acetobutylicum); remark: listed apart in the source
[15] = target: CaDoc0917(R49D/V19M) (Clostridium acetobutylicum); remark: listed apart in the source
[16] = target: B2; remark: listed apart in the source
[17] = target: B1
[18] = target: B1; remark: listed apart in the source
[19] = target: B1; remark: listed apart in the source

CaCohA2 E128Q (domain or fragment)
Ka [1]: 120000 M⁻¹
Ka [2]: 1.57e+06 M⁻¹
Ka [3]: 2.2e+07 M⁻¹
Ka [4]: 2.1e+07 M⁻¹

CaCohA2 E128Q/D130N (domain or fragment)
Ka [1]: 460000 M⁻¹
Ka [2]: 2.32e+06 M⁻¹
Ka [3]: 3.6e+06 M⁻¹
Ka [4]: 1.1e+07 M⁻¹

CaCohA2 D130N (domain or fragment)
Ka [1]: 320000 M⁻¹
Ka [2]: 4.24e+06 M⁻¹
Ka [4]: 2.1e+07 M⁻¹

B1
dH [5]: -4.67 ± 0.03 kcal/mol
stoichiometry N [5]: 0.862 ± 0.003
Ka [1]: 170000 M⁻¹
Ka [6]: 1.04e+06 M⁻¹
Ka [7]: 290000 M⁻¹
Ka [8]: 1.93e+06 M⁻¹
Ka [2]: 1.39e+06 M⁻¹
Ka [9]: 180000 M⁻¹
Ka [10]: 1.98e+06 M⁻¹
dH [11]: -9.54 ± 0.13 kcal/mol
stoichiometry N [11]: 1.09 ± 0.011
Ka [3]: 1.03e+08 M⁻¹
Ka [12]: 1.32e+08 M⁻¹
Ka [13]: 2.9e+07 M⁻¹
Ka [4]: 4.3e+07 M⁻¹
Ka [14]: 2.1e+07 M⁻¹
Ka [15]: 5.15e+08 M⁻¹
dH [16]: -7.37 ± 0.04 kcal/mol
stoichiometry N [16]: 0.95 ± 0.002

B2
Ka [17]: 2.4e+07 M⁻¹
Ka [18]: 1.8e+06 M⁻¹
Ka [19]: 1.48e+08 M⁻¹
